Results from paper PMC4593227, “Biochemical effects of mutations in the gene encoding the alpha subunit of eukaryotic initiation factor (eIF) 2B associated with Vanishing White Matter disease” (BMC Medical Genetics, 2015).

T1: His6-myc-tagged Val183Phe eIF2Bα (human, UniProt Q14232 1-305, Val183Phe)
T1 construct: eIF2Bα encoded by EIF2B1 with the VWM patient mutation Val183Phe; residue numbers start with the first methionine of GenBank AAI03764; also called p.Val183Phe; source: HEK293, transfected (calcium phosphate), in lysate
T1 sequence: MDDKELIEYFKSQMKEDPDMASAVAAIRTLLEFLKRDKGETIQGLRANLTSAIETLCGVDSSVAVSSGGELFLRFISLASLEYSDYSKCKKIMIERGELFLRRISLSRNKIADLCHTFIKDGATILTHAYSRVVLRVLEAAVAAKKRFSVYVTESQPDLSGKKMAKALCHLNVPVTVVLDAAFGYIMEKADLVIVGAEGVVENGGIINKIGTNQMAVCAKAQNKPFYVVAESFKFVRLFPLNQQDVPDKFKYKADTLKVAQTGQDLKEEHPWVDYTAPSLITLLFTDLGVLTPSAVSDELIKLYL

T2: His6-myc-tagged Tyr275Cys eIF2Bα (human, UniProt Q14232 1-305, Tyr275Cys)
T2 construct: eIF2Bα encoded by EIF2B1 with the VWM patient mutation Tyr275Cys; residue numbers start with the first methionine of GenBank AAI03764; also called p.Tyr275Cys; source: HEK293, transfected (calcium phosphate), in lysate
T2 sequence: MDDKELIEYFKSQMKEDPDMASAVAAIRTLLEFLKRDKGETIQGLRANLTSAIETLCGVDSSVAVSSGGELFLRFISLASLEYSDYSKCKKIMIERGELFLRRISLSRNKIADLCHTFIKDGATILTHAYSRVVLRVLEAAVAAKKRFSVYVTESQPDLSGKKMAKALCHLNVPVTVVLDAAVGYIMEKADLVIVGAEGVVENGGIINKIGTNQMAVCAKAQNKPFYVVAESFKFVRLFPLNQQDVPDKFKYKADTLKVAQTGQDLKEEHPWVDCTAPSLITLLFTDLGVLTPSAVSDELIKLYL


What was measured:
[1] = biological target: T1, His6-myc-tagged Val183Phe eIF2Bα; assay: pull-down; His6-myc-eIF2Bα (WT or mutant) co-expressed with myc-tagged eIF2B subunits in HEK293; ~200 μg lysate on Ni2+-NTA agarose, 1 h at 4 °C, lysis buffer (20 mM Hepes-KOH pH 7.6, 50 mM KCl, 0.5 % Triton X-100) with 20 mM imidazole; bound material blotted for myc tag, total and phospho-eIF2α; details: partners not purified
[2] = biological target: T2, His6-myc-tagged Tyr275Cys eIF2Bα; assay: as above; details: partners not purified
[3] = biological target: T1, His6-myc-tagged Val183Phe eIF2Bα; assay: cell-based or functional assay

reduction in binding relative to WT [1] [%]	reduction in binding relative to WT [2] [%]	decrease in eIF2B GEF activity of complexes containing Val183Phe eIF2Bα, relative to WT (100 %) [3] [%]	Binder
~50	~50	~30	myc-tagged eIF2Bβ (natural protein, UniProt P49770 1-351, looked up, eIF2Bβ, beta subunit of eukaryotic initiation factor 2B; one of 'the other subunits of the eIF2B complex'; source: HEK293, transfected (calcium phosphate), in lysate) MPGSAAKGSELSERIESFVETLKRGGGPRSSEEMARETLGLLRQIITDHRWSNAGELMELIRREGRRMTAAQPSETTVGNMVRRVLKIIREEYGRLHGRSDESDQQESLHKLLTSGGLNEDFSFHYAQLQSNIIEAINELLVELEGTMENIAAQALEHIHSNEVIMTIGFSRTVEAFLKEAARKRKFHVIVAECAPFCQGHEMAVNLSKAGIETTVMTDAAIFAVMSRVNKVIIGTKTILANGALRAVTGTHTLALAAKHHSTPLIVCAPMFKLSPQFPNEEDSFHKFVAPEEVLPFTEGDILEKVSVHCPVFDYVPPELITLFISNIGGNAPSYIYRLMSELYHPDDHVL
~50	~50	~30	myc-tagged eIF2Bγ (natural protein, UniProt Q9NR50 1-452, looked up, eIF2Bγ, gamma subunit of eukaryotic initiation factor 2B; one of 'the other subunits of the eIF2B complex'; source: HEK293, transfected (calcium phosphate), in lysate) MEFQAVVMAVGGGSRMTDLTSSIPKPLLPVGNKPLIWYPLNLLERVGFEEVIVVTTRDVQKALCAEFKMKMKPDIVCIPDDADMGTADSLRYIYPKLKTDVLVLSCDLITDVALHEVVDLFRAYDASLAMLMRKGQDSIEPVPGQKGKKKAVEQRDFIGVDSTGKRLLFMANEADLDEELVIKGSILQKHPRIRFHTGLVDAHLYCLKKYIVDFLMENGSITSIRSELIPYLVRKQFSSASSQQGQEEKEEDLKKKELKSLDIYSFIKEANTLNLAPYDACWNACRGDRWEDLSRSQVRCYVHIMKEGLCSRVSTLGLYMEANRQVPKLLSALCPEEPPVHSSAQIVSKHLVGVDSLIGPETQIGEKSSIKRSVIGSSCLIKDRVTITNCLLMNSVTVEEGSNIQGSVICNNAVIEKGADIKDCLIGSGQRIEAKAKRVNEVIVGNDQLMEI
